{"source": "patent US20190381086A1", "about": "“INHIBITION OF NEDDYLATION USING GLYCYL-tRNA SYNTHETASE INHIBITORS” (The Scripps Research Institute, priority 2015, published 2019)", "molecules": {"B1": {"name": "A84-93: GlyRS deletion mutant, F84-L93 replaced by GGG (protein)", "chain": "MDGAGAEEVLAPLRLAVRQQGDLVRKLKEDKAPQVDVDKAVAELKARKRVLEAKELALQPKDDIVDRAKMEDTLKRRFFYDQAGGGYDFGPVGCALKNNIIQTWRQHFIQEEQILEIDCTMLTPEPVLKTSGHVDKFADFMVKDVKNGECFRADHLLKAHLQKLMSDKKCSVEKKSEMESVLAQLDNYGQQELADLFVNYNVKSPITGNDLSPPVSFNLMFKTFIGPGGNMPGYLRPETAQGIFLNFKRLLEFNQGKLPFAAAQIGNSFRNEISPRSGLIRVREFTMAEIEHFVDPSEKDHPKFQNVADLHLYLYSAKAQVSGQSARKMRLGDAVEQGVINNTVLGYFIGRIYLYLTKVGISPDKLRFRQHMENEMAHYACDCWDAESKTSYGWIEIVGCADRSCYDLSCHARATKVPLVAEKPLKEPKTVNVVQFEPSKGAIGKAYKKDAKLVMEYLAICDECYITEMEMLLNEKGEFTIETEGKTFQLTKDMINVKRFQKTLYVEEVVPNVIEPSFGLGRIMYTVFEHTFHVREGDEQRTFFSFPAVVAPFKCSVLPLSQNQEFMPFVKELSEALTRHGVSHKVDDSSGSIGRRYARTDEIGVAFGVTIDFDTVNKTPHTATLRDRDSMRQIRAEISELPSIVQDLANGNITWADVEARYPLFEGQETGKKETIEE"}, "B2": {"name": "A232-238: GlyRS deletion mutant, I232-M238 replaced by GG (protein)", "chain": "MDGAGAEEVLAPLRLAVRQQGDLVRKLKEDKAPQVDVDKAVAELKARKRVLEAKELALQPKDDIVDRAKMEDTLKRRFFYDQAFAIYGGVSGLYDFGPVGCALKNNIIQTWRQHFIQEEQILEIDCTMLTPEPVLKTSGHVDKFADFMVKDVKNGECFRADHLLKAHLQKLMSDKKCSVEKKSEMESVLAQLDNYGQQELADLFVNYNVKSPITGNDLSPPVSFNLMFKTFGGPGYLRPETAQGIFLNFKRLLEFNQGKLPFAAAQIGNSFRNEISPRSGLIRVREFTMAEIEHFVDPSEKDHPKFQNVADLHLYLYSAKAQVSGQSARKMRLGDAVEQGVINNTVLGYFIGRIYLYLTKVGISPDKLRFRQHMENEMAHYACDCWDAESKTSYGWIEIVGCADRSCYDLSCHARATKVPLVAEKPLKEPKTVNVVQFEPSKGAIGKAYKKDAKLVMEYLAICDECYITEMEMLLNEKGEFTIETEGKTFQLTKDMINVKRFQKTLYVEEVVPNVIEPSFGLGRIMYTVFEHTFHVREGDEQRTFFSFPAVVAPFKCSVLPLSQNQEFMPFVKELSEALTRHGVSHKVDDSSGSIGRRYARTDEIGVAFGVTIDFDTVNKTPHTATLRDRDSMRQIRAEISELPSIVQDLANGNITWADVEARYPLFEGQETGKKETIEE"}, "B3": {"name": "Insertion 1: GlyRS with Insertion 1 deleted (F147-F224 replaced by GSGSGG) (protein)", "chain": "MDGAGAEEVLAPLRLAVRQQGDLVRKLKEDKAPQVDVDKAVAELKARKRVLEAKELALQPKDDIVDRAKMEDTLKRRFFYDQAFAIYGGVSGLYDFGPVGCALKNNIIQTWRQHFIQEEQILEIDCTMLTPEPVLKTSGHVDKFADGSGSGGNLMFKTFIGPGGNMPGYLRPETAQGIFLNFKRLLEFNQGKLPFAAAQIGNSFRNEISPRSGLIRVREFTMAEIEHFVDPSEKDHPKFQNVADLHLYLYSAKAQVSGQSARKMRLGDAVEQGVINNTVLGYFIGRIYLYLTKVGISPDKLRFRQHMENEMAHYACDCWDAESKTSYGWIEIVGCADRSCYDLSCHARATKVPLVAEKPLKEPKTVNVVQFEPSKGAIGKAYKKDAKLVMEYLAICDECYITEMEMLLNEKGEFTIETEGKTFQLTKDMINVKRFQKTLYVEEVVPNVIEPSFGLGRIMYTVFEHTFHVREGDEQRTFFSFPAVVAPFKCSVLPLSQNQEFMPFVKELSEALTRHGVSHKVDDSSGSIGRRYARTDEIGVAFGVTIDFDTVNKTPHTATLRDRDSMRQIRAEISELPSIVQDLANGNITWADVEARYPLFEGQETGKKETIEE"}, "B4": {"name": "GlyRS: human Glycyl-tRNA synthetase, recombinant full-length protein (SEQ ID NO: 2) (protein, listed as Homo sapiens)", "chain": "MDGAGAEEVLAPLRLAVRQQGDLVRKLKEDKAPQVDVDKAVAELKARKRVLEAKELALQPKDDIVDRAKMEDTLKRRFFYDQAFAIYGGVSGLYDFGPVGCALKNNIIQTWRQHFIQEEQILEIDCTMLTPEPVLKTSGHVDKFADFMVKDVKNGECFRADHLLKAHLQKLMSDKKCSVEKKSEMESVLAQLDNYGQQELADLFVNYNVKSPITGNDLSPPVSFNLMFKTFIGPGGNMPGYLRPETAQGIFLNFKRLLEFNQGKLPFAAAQIGNSFRNEISPRSGLIRVREFTMAEIEHFVDPSEKDHPKFQNVADLHLYLYSAKAQVSGQSARKMRLGDAVEQGVINNTVLGYFIGRIYLYLTKVGISPDKLRFRQHMENEMAHYACDCWDAESKTSYGWIEIVGCADRSCYDLSCHARATKVPLVAEKPLKEPKTVNVVQFEPSKGAIGKAYKKDAKLVMEYLAICDECYITEMEMLLNEKGEFTIETEGKTFQLTKDMINVKRFQKTLYVEEVVPNVIEPSFGLGRIMYTVFEHTFHVREGDEQRTFFSFPAVVAPFKCSVLPLSQNQEFMPFVKELSEALTRHGVSHKVDDSSGSIGRRYARTDEIGVAFGVTIDFDTVNKTPHTATLRDRDSMRQIRAEISELPSIVQDLANGNITWADVEARYPLFEGQETGKKETIEE"}}, "target": "T1, Ubc12^N8 (Homo sapiens, UniProt P61081+Q15843, C111S)", "T1 construct": "DEN1 which processes NEDD8 to its mature, 76-amino acid form; made in house; conjugate made enzymatically in vitro", "T1 sequence (P61081 whole entry C111S)": "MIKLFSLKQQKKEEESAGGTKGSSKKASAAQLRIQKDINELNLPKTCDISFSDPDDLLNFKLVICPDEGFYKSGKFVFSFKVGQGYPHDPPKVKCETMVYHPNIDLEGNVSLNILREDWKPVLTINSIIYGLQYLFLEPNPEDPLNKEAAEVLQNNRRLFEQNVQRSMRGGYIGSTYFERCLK", "T1 sequence (Q15843 1-76 limits assumed)": "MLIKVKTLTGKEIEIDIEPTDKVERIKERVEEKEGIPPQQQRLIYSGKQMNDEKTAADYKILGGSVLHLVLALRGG", "experiment": "Biolayer interferometry, immobilized Ubc12^N8", "type": "binding", "settings": "for Kd: binding to immobilized Ubc12^N8", "description": "V5-tagged GlyRS and Flag-tagged Ubc12-C111S genes were co-transfected to HEK293 cell for the assay. FIG. 3B: Strong binding of Ubc12^N8 to GlyRS as determined by biolayer interferometry. A.U. indicates Arbitrary Unit. Binding analysis to immobilized GST-GlyRS was carried out with the same concentration (62.5 nM) of NEDD8, Ubc12, or Ubc12^N8 at 30°. FIG. 3C: Biolayer interferometry analysis confirms that GlyRS binding to Ubc12^N8. Binding analysis to immobilized Ubc12^N8 was carried out with a range of concentrations of full-length (8.07 nM-129 nM) GlyRS. FIG. 3D: Structural model of the GlyRS-Ubc12^N8 interaction generated using Patchdock (a server for molecular docking). FIGS. 3E-G: Biolayer interferometry analysis confirms that F84-L93 and I232-M238 regions, but not Insertion 1, are important for GlyRS binding to Ubc12^N8. Binding analysis to immobilized Ubc12^N8 was carried out with a range of concentrations (1.25-20 μg/mL) of ΔF84-L93 (8.16-130 nM), ΔI232-M238 (8.13-130 nM), and Alnsertion 1 (62.5-125 nM) GlyRS. FIG. 3H: Over-expression of ΔI232-M238 GlyRS in HEK293 cells cannot promote NEDD8 conjugation of Ubc12. HEK293 cells were transfected with pcDNA6V5 vectors containing the indicated gene fragment with a V5-tag.\nThe conjugated Ubc12 was prepared by mixing APPBP1/UBA3 (2 μM), Ubc12 (C111S; the mutant would form a stable ester linkage to NEDD8) (70 μM), and His-SUMO-tagged NEDD8 (100 μM). The mixture was incubated at 25° C. for 16 h in 50 mM NaOAc pH 5.5, 50 mM NaCl, 1 mM MgCl2, and 2 mM ATP. Ubc12^N8 was then purified by gel filtration chromatography using a Superdex 200 column. The fractions containing only Ubc12^N8 were concentrated and used for the study. The purity of proteins was examined by SDS-PAGE to be above 95%.\nThe dissociation constants (Kd) were obtained with biolayer interferometry by using an Octet QK system (ForteBio, Menlo Park, Calif., USA). Samples or buffer were dispensed into 96-well plates (Millipore, Billerica, Mass.) at 200 μL per well. Operating temperature was maintained at 30° C. Proteins were diluted into kinetic buffer (PBS with 0.1% BSA and 0.002% Tween-20) and immobilized on either anti-GST or Ni-NTA sensor tips. The other proteins were diluted using the same buffer into a range of different concentrations. Assays with Ubc12^N8 were carried out using the acid kinetic buffer (50 mM NaOAc pH 5.5, 50 mM NaCl, 0.1% BSA, and 0.002% Tween-20). The raw data were processed by subtraction to reference cells and then aligned with baselines. The dissociation constants Kd were obtained by fitting the processed data using the 1:1 model in the Octet analysis software with R^2>0.99.\nIndeed, GlyRS can bind to Ubc12^N8 in HEK293 cells as detected by co-immunoprecipitation (FIG. 3a). […] To quantify the difference, Ubc12^N8 was enzymatically made and purified, and its binding affinity to GlyRS was measured using biolayer interferometry. […] Therefore, it is possible that GlyRS enhances neddylation by protecting reaction intermediate Ubc12^N8.\nUsing the crystal structure of human GlyRS16 and of Ubc12N8 (adapted from its complex with substrate cullin and E3), a model was generated for the GlyRS-Ubc12^N8 interaction using the Patchdock algorithm (http://bioinfo3d.cs.tau.ac.il/PatchDock/). […]", "data": [{"molecule": "B1", "values": [{"measurement": "Kd", "value": "27 ± 0.4", "unit": "nM"}, {"measurement": "fold decrease of binding of GlyRS to Ubc12^N8", "setting": "versus full-length GlyRS", "value": 9, "unit": "fold"}]}, {"molecule": "B2", "values": [{"measurement": "binding of GlyRS to Ubc12^N8", "setting": "immobilized Ubc12^N8, FIG. 3f", "value": "abolished the binding completely"}]}, {"molecule": "B3", "values": [{"measurement": "Kd", "value": "4.32 ± 0.12", "unit": "nM"}]}, {"molecule": "B4", "values": [{"measurement": "Kd", "value": "3.21 ± 0.17", "unit": "nM"}]}]}
